Test results reported in US20140134690A1, “MICROBES AND METHODS FOR PRODUCING 1-PROPANOL” (University of Georgia Research Foundation, Inc., priority 2012, published 2014).

Legend:
Test in all cases: cells, lysate or membranes named
O=C(CO)COP(=O)(O)O [1] = format: biochemical, C. difficile; details: other: substrate dihydroxyacetone phosphate 0.15-1.5 mM, crude extract, imidazole-HCl pH 7.0, 30° C.
From the text: (§1) 1,2-Propanediol pathway branches from glycolysis and competes for the intermediate dihydroxyacetone phosphate, with the glycolytic pathway. […] We amplified the mgsA genes from the microorganisms: C. acetobutylicum (ATCC#824), B. subtilis 168, C. difficile R20291, E. coli MG1655, T. thermophilus HB27, K. pneumoniae MGH78578, P. fluorescens Pf-5, and R. eutropha H16 respectively. These genes were cloned and expressed in wild type E. coli BW25113 using eight plasmids pRJ1-pRJ8. Each gene was under the control of the IPTG-inducible pLlacO1 promoter. Using dihydroxyacetone-phosphate as the substrate, we successfully detected the functional expression of all mgsA genes in vitro, where the specific activities varied from 0.0052 U/mg to 0.1242 U/mg (Table 1). […] Without the over-expression of mgsA gene, we also detected the native expression of E. coli mgsA, which gave a specific activity of only 0.0008 U/mg, much lower than that of any over-expression.
(§2) Using the primers listed in Table 5, the mgsA genes were PCR amplified from the genomic DNA of C. acetobutylicum (ATCC824), B. subtilis 168, Clostridium difficile R20291, E. coli MG1655, Thermus thermophilus HB27, K. pneumoniae MGH78578, Pseudomonas fluorescens Pf-5, and Ralstonia eutropha H16 respectively. […]
(§3) The assay was carried out using a two-step procedure. […] The samples were diluted 10 times before measuring the absorbance at 550 nm.

O=C(CO)COP(=O)(O)O [2] = format: biochemical, K. pneumoniae; details: other: substrate dihydroxyacetone phosphate 0.15-1.5 mM, crude extract, imidazole-HCl pH 7.0, 30° C.
From the text: as §1, §2, §3

O=C(CO)COP(=O)(O)O [3] = format: biochemical, E. coli; details: other: substrate dihydroxyacetone phosphate 0.15-1.5 mM, crude extract, imidazole-HCl pH 7.0, 30° C.
From the text: as §1, §2, §3

CC(=O)CO = details: other: hydroxyacetone 20-120 mM, 0.25 mM NADH, crude extract, imidazole-HCl pH 7.0, 37° C.
CC(=O)C=O = details: other: methylglyoxal 20-120 mM, 0.25 mM NADH, crude extract, imidazole-HCl pH 7.0, 37° C.

Clostridium difficile R20291 methylglyoxal synthase (mgsA), wild type (Clostridioides difficile R20291)
Km (O=C(CO)COP(=O)(O)O [1]): 1439 ± 60 µM

Klebsiella pneumoniae MGH78578 methylglyoxal synthase (mgsA), wild type (Klebsiella pneumoniae subsp. pneumoniae MGH 78578)
Km (O=C(CO)COP(=O)(O)O [2]): 2820 ± 300 µM

E. coli MG1655 methylglyoxal synthase (mgsA), wild type (Escherichia coli K-12)
Km (O=C(CO)COP(=O)(O)O [3]): 1418 ± 120 µM

K. pneumoniae MGH78578 diol dehydrogenase (budC), wild type (Klebsiella pneumoniae subsp. pneumoniae MGH 78578)
Km (CC(=O)CO): 1830 ± 630 µM
Km (CC(=O)C=O): 780 ± 30 µM
